Targets include FUBP3; HNRNPA2B1; ILF3; MYH9; SART3.
Common to all, as to test: FLAG immunoprecipitation and LC/ESI-MS/MS
Holding throughout (settings): HEK293T cells, three biological replicates; read off a plot

With “FLAG-tagged DND1 wild-type (Dead End, full-length human protein 1-353) (from UniProt Q8IYX4) R98A”, the other: log2 fold change is -2.5 with FUBP3; -1.3 in the assay with HNRNPA2B1; -1.6 in the assay with ILF3; 0.43 in the assay with MYH9; -2.5 with SART3.
